We go through one molecule from PMC12328794 (2025).

In this assay the target is cytosolic domain of human Fis1 (Fis1_ΔTM, residues 1−123) (human, UniProt Q9Y3D6 1-123). The assay is described as follows: SPR.

B1: Bap31_CC2 D224K (domain or fragment)
chain: LDVGNAEVKLEEENRSLKADLQKLKDELASTKQKLEKAENQVLAMRKQSEGLTKEYKRLLEEHAKLQAAVDGPMDKKEE
For the molecule B1, binding was characterised by a dissociation constant (Kd) of 156 µM.
